Source: the supplement of paper PMC9170038

System: MS2 coat protein
Assay: apparent KD of MS2 coat protein; designed switch direction (-1 OFF switch, 1 ON switch): -1; higher = weaker reporter binding
How it was run: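 For each design, the apparent KD is the median over clusters of curves fitted to normalised cluster fluorescence. Clusters held RNA switches with common flanks, transcribed on Illumina chips by stalled E. coli RNA polymerase. These were titrated with SNAP-549-labelled MS2 coat protein, doubling from 0.7 or 1.5 nM to 3 µM, without input, with 200 uM small-molecule ligand, or with an oligonucleotide input.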

[1] = Eterna round: R95, input ligand: FMN 200 uM
[2] = Eterna round: R95, input ligand: microRNA oligo, concentration not stated
[3] = Eterna round: R95, input ligand: none
[4] = input ligand: microRNA oligo, concentration not stated

CCUAGCCUAAAAUCACGCAAGCUUUUUGCUUGUCUUAAGACAUGAGGAUCACCCAUGUCCGGGCUGAACUUAUGGAA [Veorxe] (puzzle: Sensor v3, turn-off variant 2)
apparent KD of MS2 coat protein [1]: 17.8 nM
apparent KD of MS2 coat protein [2]: 23.2 nM
apparent KD of MS2 coat protein [3]: 16.6 nM

CCUAUGUGAGGAUAUGUCUGGUCUUCUUUUGUUUUUUACAGACAGAAGGCACAUGAGGAUCACCCAUGUCAGAC [Ex4 - 3 - 47] (puzzle: Exclusion 4)
apparent KD of MS2 coat protein [2]: 17 nM

CCUAUGUUAGGAUAUCUAGUAAGAGGCCCAUAGGGCCGUGCAGAGAAGGGACAUGAGGAUCACCCAUGUGUCAC [Eternabot (L1) Solution 86] (Eterna round: R97, puzzle: Exclusion 4)
apparent KD of MS2 coat protein (input ligand: FMN 200 uM): 26.7 nM
apparent KD of MS2 coat protein (input ligand: none): 34.6 nM

CCUCCACAUGAGGAUCACCCAUGUCAGGAUAUCGUGUGUGCGUUUUCGGUCUUUCGCGCGAGAAGGGACGACUG (puzzle: Exclusion 1)
apparent KD of MS2 coat protein [2]: 27.5 nM

CCUCCACAUGAGGAUCACCCAUGUCAGGAUAUCGUGUGUUUUUUUUCGGUCGUGCGUGCGAGAAGGGACGUCUU (puzzle: Exclusion 1)
apparent KD of MS2 coat protein [2]: 24.8 nM

CCUCCGCAUUAGGAUAUCGUCACAGAAAUGUGACGAGAAGGAAUGACAUGAGGAUCACCCAUGUUAACGUGAUG [Mod of Brourd 15 - Jieux - Exclusion 6] (Eterna round: R97, puzzle: Exclusion 6)
apparent KD of MS2 coat protein (input ligand: FMN 200 uM): 276 nM
apparent KD of MS2 coat protein (input ligand: none): 48.7 nM

CCUCCGCAUUAGGAUAUCGUCCCGGAAACGGGACGAGAAGGAAUGACAUGAGGAUCACCCAUGUUAACGUGAUG [Mod of Brourd 18 - Jieux - Exclusion 6] (Eterna round: R97, puzzle: Exclusion 6)
apparent KD of MS2 coat protein (input ligand: FMN 200 uM): 304 nM
apparent KD of MS2 coat protein (input ligand: none): 48.2 nM

CCUCGACAUGAGGAUCACCCAUGUCAGGAUAUUGUGUUUUGGGUUUUUUACCUUUAGGCAAGAAGGGAUGUGUG [LRO-Excl1-17] (puzzle: Exclusion 1)
apparent KD of MS2 coat protein [2]: 16.1 nM

CCUCGCAGGCAAGGAUAUCCUACAUUGUUCUGGCCCGGGCAUGCUACAUGAGGAUCACCCAUGUGGGAGAAGGUGCGCCACGGC [Design 31] (Eterna round: R96, puzzle: Exclusion NG 2)
apparent KD of MS2 coat protein (input ligand: FMN 200 uM): 48.3 nM
apparent KD of MS2 coat protein [4]: 28.1 nM
apparent KD of MS2 coat protein (input ligand: none): 42.2 nM

CGAGCUUUUUGCUCGUCUUACAUGAGGAUCACCCAUGUCAUACAGAUAGAUAUACGAAAAGUAUAUCUAUCUGUAUG [Mod of sellena's -59.4, -80.7 kcal, A 10%] (Eterna round: R97, puzzle: Sensor, turn-off variant 1)
apparent KD of MS2 coat protein (input ligand: FMN 200 uM): 23.3 nM
apparent KD of MS2 coat protein (input ligand: none): 27.5 nM

CGAGUGUAAGGAUAUUCGGCACUAGGGACCACCCUAGUGUAGAAGAAGGUACAUGAGGAUCACCCAUGUGGUUA [Bereisonma] (puzzle: Exclusion 4)
apparent KD of MS2 coat protein [2]: 273 nM

CGAUGCUCGAAUCCACAUGAGGAUCACCCAUGUCGAGUUAGCGAGGAUAUCGGAGACACAUAGUAUGAGAAGGCGCGAACCUGA [Ex NG3 #23] (Eterna round: R96, puzzle: Exclusion NG 3)
apparent KD of MS2 coat protein (input ligand: FMN 200 uM): 15.5 nM
apparent KD of MS2 coat protein [4]: 10.5 nM
apparent KD of MS2 coat protein (input ligand: none): 12.1 nM

CGAUGCUCGAAUCCACAUGAGGAUCACCCAUGUCGAGUUAGCGAGGAUAUCGGUGACACAUAGUACGAGAAGGCGCGAACCUGA [Ex NG3 #25] (Eterna round: R96, puzzle: Exclusion NG 3)
apparent KD of MS2 coat protein (input ligand: FMN 200 uM): 50.9 nM
apparent KD of MS2 coat protein [4]: 28.3 nM
apparent KD of MS2 coat protein (input ligand: none): 34.8 nM

CGAUGUUAUGUCAGGAUAUGCAUUGCGAAAGCGAUGCAGAAGGGACAUGAGGAUCACCCAUGUCCUAACCAUCG [Omei A 6] (puzzle: Brourd's mod of Exclusion 4)
apparent KD of MS2 coat protein [2]: 11.6 nM

CGAUGUUAUGUCAGGAUAUGCGUUGCGAAAGCAAUGUAGAAGGGACAUGAGGAUCACCCAUGUCCUAACCAUCG [Omei A 8] (puzzle: Brourd's mod of Exclusion 4)
apparent KD of MS2 coat protein [1]: 15.1 nM
apparent KD of MS2 coat protein [2]: 13 nM
apparent KD of MS2 coat protein [3]: 13.5 nM

CGCACACAUGAGGAUCACCCAUGUGAGGAUAUCAUGCUUCGUAGUAAACUACGAAGUGUGAGAAGGCACAUGUU [Omei Ex1 D9] (Eterna round: R97, puzzle: Exclusion 1)
apparent KD of MS2 coat protein (input ligand: FMN 200 uM): 144 nM
apparent KD of MS2 coat protein (input ligand: none): 55 nM

CGCCUGUUAGGAUAUUAGUAGUAGUCAGAAUAGACUAUUACUGAGAAGGAACAUGAGGAUCACCCAUGUUGGCG [Eli x4 4.13] (Eterna round: R97, puzzle: Exclusion 4)
apparent KD of MS2 coat protein (input ligand: FMN 200 uM): 19.9 nM
apparent KD of MS2 coat protein (input ligand: none): 15.5 nM

CGCGUAGGAGGAUAUAUGGCAUACAACAUGAGGAUCACCCAUGUAGUCGCACGUUGGGAUAUAGAAGGCCUGCGAA [Eternabot (L1) Solution 87] (Eterna round: R97, puzzle: Exclusion 5)
apparent KD of MS2 coat protein (input ligand: FMN 200 uM): 18.3 nM
apparent KD of MS2 coat protein (input ligand: none): 20 nM

CGGCAAAGGAAGGAUAUGCUAGACGAUAGUCUAGCAGAAGGUCCUACAUGAGGAUCACCCAUGUGUCCUAGCCG [Mat - Exclusion 6 - Eli Mod - D9] (Eterna round: R97, puzzle: Exclusion 6)
apparent KD of MS2 coat protein (input ligand: FMN 200 uM): 49.6 nM
apparent KD of MS2 coat protein (input ligand: none): 44.3 nM

CGGGCCCAGGCAGGAUAUGUACAGCCACAAAACCCUCGUGUGAGGGACAUGAGGAUCACCCAUGUAUAGAAGGGCCAGCGCGUA [Xeditein] (Eterna round: R96, puzzle: Exclusion NG 2)
apparent KD of MS2 coat protein (input ligand: FMN 200 uM): 26.3 nM
apparent KD of MS2 coat protein [4]: 14 nM
apparent KD of MS2 coat protein (input ligand: none): 22 nM

CGGUACUGAGGAUAUACAUGAGGAUCACCCAUGUGUUCCAGCUAGCGUACUGGCAUUUGUAGAAGGCGGUGCUG [JL-ex3-3.22 Brourd mod] (puzzle: Exclusion 3)
apparent KD of MS2 coat protein [2]: 16 nM

CGGUGCUGAGGAUAUACAUGAGGAUCACCCAUGUGUGCCAGCUAGCUGACUGGCGCUUGUAGAAGGCAGUACUG [JL-ex3-2.12 Brourd mod] (puzzle: Exclusion 3)
apparent KD of MS2 coat protein [2]: 11.4 nM

CGGUGCUGAGGAUAUACAUGAGGAUCACCCAUGUGUUAUUGAUAGAAAACUGGCAGAUGUAGAAGGCGGUACUG [Mat - Exclusion 3 - Mod of JL D99] (puzzle: Exclusion 3)
apparent KD of MS2 coat protein [1]: 80.5 nM
apparent KD of MS2 coat protein [2]: 25.4 nM
apparent KD of MS2 coat protein [3]: 24.9 nM

CGGUGCUUCUGGAAACAUGAGGAUCACCCAUGUUGAGUUAGCGAGGAUAUCGGUAACACUUGUUAUGAGAAGGCGCGAACCAGA [Ex NG3 #35] (Eterna round: R96, puzzle: Exclusion NG 3)
apparent KD of MS2 coat protein (input ligand: FMN 200 uM): 13.6 nM
apparent KD of MS2 coat protein [4]: 14.6 nM
apparent KD of MS2 coat protein (input ligand: none): 19.4 nM

CGGUGCUUGUGGAAACAUGAGGAUCACCCAUGUUGAGUUAGCGAGGAUAUCGGUAACACAUGUCACGAGAAGGCGCGAACCAGA [Ex NG3 #33] (Eterna round: R96, puzzle: Exclusion NG 3)
apparent KD of MS2 coat protein (input ligand: FMN 200 uM): 39.6 nM
apparent KD of MS2 coat protein [4]: 18.1 nM
apparent KD of MS2 coat protein (input ligand: none): 16.2 nM

CGGUGUAACGUAGGAUAUCAGCGCAACUGACGAUGAGAAGGACGACAUGAGGAUCACCCAUGUGAUUUCUCAAUAUUAUACAUC [Prohibition 87 - Jieux - Exclusion NG 1] (Eterna round: R96, puzzle: Exclusion NG 1)
apparent KD of MS2 coat protein (input ligand: FMN 200 uM): 511 nM
apparent KD of MS2 coat protein [4]: 58.9 nM
apparent KD of MS2 coat protein (input ligand: none): 74.5 nM

CGGUGUAGAGGAUAUACGUGAAUAUUAUUAGAUAAUAAUUUACAUGAGGAUCACCCAUGUAGAAGGCUAUAGCG [JR_Ex2_Sub083] (Eterna round: R97, puzzle: Exclusion 2)
apparent KD of MS2 coat protein (input ligand: FMN 200 uM): 24.9 nM
apparent KD of MS2 coat protein (input ligand: none): 20.1 nM

CGUAAAAGGUAGGAUAUGCUAGACGAAAGUCUAGCAGAAGGACCUACAUGAGGAUCACCCAUGUGUCCAAUACG [Mat - Exclusion 6 - Eli Mod - D22] (Eterna round: R97, puzzle: Exclusion 6)
apparent KD of MS2 coat protein (input ligand: FMN 200 uM): 50.7 nM
apparent KD of MS2 coat protein (input ligand: none): 117 nM

CGUACUGAAGUCAGGAUAUUGUCUCGGAUACGAAACAAGAAGGGACAUGAGGAUCACCCAUGUAGACAGUACGA [Malc #30 mod 3] (puzzle: Brourd's mod of Exclusion 4)
apparent KD of MS2 coat protein [1]: 19.3 nM
apparent KD of MS2 coat protein [2]: 20.5 nM
apparent KD of MS2 coat protein [3]: 24.9 nM

CGUAUGUCAGGAUAUCGUGCAUACAACGAAAGUUCUAUGUGCGAGAAGGGACAUGAGGAUCACCCAUGUCUUCG [Omei Ex4 A13] (Eterna round: R97, puzzle: Exclusion 4)
apparent KD of MS2 coat protein (input ligand: FMN 200 uM): 42.8 nM
apparent KD of MS2 coat protein (input ligand: none): 23.6 nM

CGUCAAGCUUCGGCAGGCAACAUGAGGAUCACCCAUGUCUGCGUUCGUCUUAACUGAUCUAGGGAUAGAUCGUGUGU [Eternabot (L1) Solution 49] (Eterna round: R97, puzzle: Sensor, turn-off variant 1)
apparent KD of MS2 coat protein (input ligand: FMN 200 uM): 18.3 nM
apparent KD of MS2 coat protein (input ligand: none): 15.4 nM

CGUCCUGAUGACAACUUACAUGAGGAUCACCCAUGUGCCUCGCAGGAUAUCCCAGCACGUCGCAAGGAGAAGGGCGACGCGCCA [Ceeninge] (Eterna round: R96, puzzle: Exclusion NG 3)
apparent KD of MS2 coat protein (input ligand: FMN 200 uM): 18 nM
apparent KD of MS2 coat protein [4]: 13.7 nM
apparent KD of MS2 coat protein (input ligand: none): 19 nM

CGUCGAAAUGUAGGAUAUCUGCACGUUUAGUGCAGAGAAGGACAUGAGGAUCACCCAUGUAGAUCACGACGAAUUAAUUUAAUU [ENG1/5-C2] (Eterna round: R96, puzzle: Exclusion NG 1)
apparent KD of MS2 coat protein (input ligand: FMN 200 uM): 374 nM
apparent KD of MS2 coat protein [4]: 47.3 nM
apparent KD of MS2 coat protein (input ligand: none): 65.8 nM

CGUCUGUAAGGAUAUGGUUGCAUCAACAUGAGGAUCACCCAUGUAACAUGGGACUAGUGAUUAGAAGGUACGAACG [EX5 #58] (Eterna round: R97, puzzle: Exclusion 5)
apparent KD of MS2 coat protein (input ligand: FMN 200 uM): 156 nM
apparent KD of MS2 coat protein (input ligand: none): 142 nM

CGUCUGUGAGGAUAUGGUAUCGUUUACAUGAGGAUCACCCAUGUUACAUGGGACUAGAGACUAGAAGGUACUGACG [EX5 #47] (Eterna round: R97, puzzle: Exclusion 5)
apparent KD of MS2 coat protein (input ligand: FMN 200 uM): 628 nM
apparent KD of MS2 coat protein (input ligand: none): 878 nM
